Measured values reported in article PMC9249733 (Nature Communications, 2022).

Key:
[1] = biological target: T1, biotinylated hepatocyte growth factor receptor (HGFR) (Homo sapiens (assumed; species not …, UniProt P08581, biotin); assay: flow cytometry of antibody-coated beads; IgG (0.076 ug/mL) captured on Protein A Dynabeads overnight; biotinylated HGFR in PBSB at a range of concentrations at 10x molar excess, 3 h, room temperature; detected with streptavidin-AF647; median fluorescence; conditions: both partners purified
T1 construct: hepatocyte growth factor receptor (c-Met, tyrosine-protein kinase Met); bought biotinylated protein; The library sorting and the scFab measurements on yeast used another construct (extracellular domain as Fc fusion, Acro Biosciences MET-H5256); also called c-Met; tyrosine-protein kinase Met; source: bought: Sino Biological 10692-H27H-B

[2] = biological target: T1, biotinylated hepatocyte growth factor …; assay: flow cytometry of antibody-coated beads; single point; IgG (15 ug/mL) captured on Protein A Dynabeads overnight at 4 C; 1 nM biotinylated HGFR or 0.1 mg/mL biotinylated ovalbumin in PBSB, 3 h, room temperature; streptavidin-AF647; scores normalised between emibetuzumab (high) and elotuzumab (low); conditions: both partners purified

T1 sequence (P08581 25-932): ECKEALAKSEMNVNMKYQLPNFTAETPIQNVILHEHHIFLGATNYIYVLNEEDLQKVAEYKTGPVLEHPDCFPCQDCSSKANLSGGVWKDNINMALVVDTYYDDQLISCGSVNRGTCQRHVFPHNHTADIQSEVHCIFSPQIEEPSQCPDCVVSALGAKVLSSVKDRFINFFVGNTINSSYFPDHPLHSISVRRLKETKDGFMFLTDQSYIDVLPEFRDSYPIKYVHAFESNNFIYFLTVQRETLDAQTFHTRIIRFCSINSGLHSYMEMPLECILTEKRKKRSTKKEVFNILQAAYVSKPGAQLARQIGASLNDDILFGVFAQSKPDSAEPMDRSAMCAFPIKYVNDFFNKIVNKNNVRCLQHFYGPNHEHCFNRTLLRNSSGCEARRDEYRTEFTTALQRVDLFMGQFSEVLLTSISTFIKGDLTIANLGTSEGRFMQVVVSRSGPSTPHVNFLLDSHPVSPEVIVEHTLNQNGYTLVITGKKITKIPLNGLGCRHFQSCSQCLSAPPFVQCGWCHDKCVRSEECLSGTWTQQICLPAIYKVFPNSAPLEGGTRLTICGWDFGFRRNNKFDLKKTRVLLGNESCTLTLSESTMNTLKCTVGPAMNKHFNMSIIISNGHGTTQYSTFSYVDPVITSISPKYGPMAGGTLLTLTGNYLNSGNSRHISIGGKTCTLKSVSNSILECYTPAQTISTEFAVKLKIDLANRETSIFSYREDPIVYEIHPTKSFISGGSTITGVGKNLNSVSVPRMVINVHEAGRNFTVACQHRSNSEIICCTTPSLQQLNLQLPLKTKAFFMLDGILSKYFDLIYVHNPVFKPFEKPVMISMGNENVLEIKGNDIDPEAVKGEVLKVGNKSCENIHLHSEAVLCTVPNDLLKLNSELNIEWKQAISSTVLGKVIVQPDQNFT

EC50 [1] [nM]	antigen binding at 1 nM HGFR relative to wild type [2]	Binder
4.4		emibetuzumab (wild type), soluble IgG1 (antibody, V domains shown) VH: QVQLVQSGAEVKKPGASVKVSCKASGYTFTDYYMHWVRQAPGQGLEWMGRVNPNRRGTTYNQKFEGRVTMTTDTSTSTAYMELRSLRSDDTAVYYCARANWLDYWGQGTTVTVSS VL: DIQMTQSPSSLSASVGDRVTITCSVSSSVSSIYLHWYQQKPGKAPKLLIYSTSNLASGVPSRFSGSGSGTDFTLTISSLQPEDFATYYCQVYSGYPLTFGGGTKVEIK
2.4	1.28 x of wild type	EM2, emibetuzumab variant, soluble IgG1 (antibody, V domains shown) VH: QVQLVQSGAEVKKPGASVKVSCKASGYTFTDYYMHWVRQAPGQGLEWMGRVNPNGRGTTYNQKFEGRVTMTTDTSTSTAYMELRSLRSDDTAVYYCARSNLLEDWGQGTTVTVSS VL: DIQMTQSPSSLSASVGDRVTITCSVSSSVSSIYLHWYQQKPGKAPKLLIYSTSNLASGVPSRFSGSGSGTDFTLTISSLQPEDFATYYCQVYSGYPLTFGGGTKVEIK
2.6	1.2 x of wild type	EM1, emibetuzumab variant, soluble IgG1 (antibody, V domains shown) VH: QVQLVQSGAEVKKPGASVKVSCKASGYTFTDYYMHWVRQAPGQGLEWMGRVNPNGRGTTYNQKFEGRVTMTTDTSTSTAYMELRSLRSDDTAVYYCARSNLLDDWGQGTTVTVSS VL: DIQMTQSPSSLSASVGDRVTITCSVSSSVSSIYLHWYQQKPGKAPKLLIYSTSNLASGVPSRFSGSGSGTDFTLTISSLQPEDFATYYCQVYSGYPLTFGGGTKVEIK
